{"source": "patent US9611295B2", "about": "“Treatment of IL-17 mediated disease by blocking SEFIR-SEFIR interactions” (THE CLEVELAND CLINIC FOUNDATION, priority 2011, dated 2017)", "key": {"Act1-IL-17RA interaction": {"target": "T1, Act1-IL-17RA interaction (Homo sapiens, UniProt Q96F46)", "T1 construct": "expressed in transfected cells; host or cells: HeLa", "T1 sequence (Q96F46 33-866)": "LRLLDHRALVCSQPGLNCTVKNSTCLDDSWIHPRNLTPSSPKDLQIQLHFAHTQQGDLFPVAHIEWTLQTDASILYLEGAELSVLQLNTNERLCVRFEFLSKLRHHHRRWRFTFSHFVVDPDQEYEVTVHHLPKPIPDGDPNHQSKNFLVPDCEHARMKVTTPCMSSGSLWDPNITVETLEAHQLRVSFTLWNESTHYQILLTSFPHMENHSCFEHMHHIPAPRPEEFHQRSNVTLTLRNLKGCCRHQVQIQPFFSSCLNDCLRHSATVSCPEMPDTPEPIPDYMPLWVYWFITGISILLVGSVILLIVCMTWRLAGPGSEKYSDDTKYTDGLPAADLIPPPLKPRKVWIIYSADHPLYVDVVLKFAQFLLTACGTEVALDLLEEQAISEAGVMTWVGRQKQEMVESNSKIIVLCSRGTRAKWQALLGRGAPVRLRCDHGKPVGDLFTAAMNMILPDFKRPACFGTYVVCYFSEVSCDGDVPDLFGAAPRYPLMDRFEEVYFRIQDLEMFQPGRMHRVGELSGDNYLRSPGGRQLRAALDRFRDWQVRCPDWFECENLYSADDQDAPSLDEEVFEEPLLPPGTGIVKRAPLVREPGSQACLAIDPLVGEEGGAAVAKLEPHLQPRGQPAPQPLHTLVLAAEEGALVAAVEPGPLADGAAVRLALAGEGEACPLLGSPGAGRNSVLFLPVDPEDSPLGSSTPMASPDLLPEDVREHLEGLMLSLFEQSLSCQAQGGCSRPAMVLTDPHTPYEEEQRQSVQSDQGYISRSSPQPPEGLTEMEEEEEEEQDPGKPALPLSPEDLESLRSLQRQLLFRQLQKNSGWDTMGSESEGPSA", "assay": "Co-immunoprecipitation of Act1 and IL-17RA in transfected HeLa cells", "format": "cell-based, mouse Act1, human IL-17RA", "conditions": "peptides 200 μM, 24 hours", "procedure": "(§1) FIG. 4 provides data showing that a cell-permeable CC′ loop decoy peptide disrupts the interaction between Act1 and IL-17RA and inhibits IL-17R and IL-25R signaling. FIG. 4A provides sequences of Antennapedia homeodomain (Antp) (SEQ ID NO: 11)and decoy peptides (SEQ ID NOS 23-25 and 17, respectively, in order of appearance) with the Antp sequence underlined. FIG. 4B provides flow cytometry results based on experiments in which MEFs expressing IL-17RB were incubated for 2 or 24 hours with the indicated FITC-tagged peptides (200 μM) and were then analyzed by flow cytometry. […] The percentages of FITC-positive cells in the treated samples are shown. […] FIG. 4D provides Western blot results of experiments in which MEFs expressing IL-17RB were incubated with the indicated peptides (200 μM) for 24 hours after which they were treated with IL-17 or IL-25 and then analyzed by Western blotting with the indicated antibodies. […] The abundances of Cxcl1 and Il13 mRNAs were then measured by real-time RT-PCR. […]\n(§2) Decoy peptides are based on surface-exposed regions of the primary sequence of a protein to mimic a putative interaction interface. […] These decoy peptides were also tagged at their C-termini with fluorescein isothiocyanate (FITC) to enable their cell-penetrating efficiency to be evaluated by flow cytometric sanalysis. […]"}, "[1]": {"system": "IL-25-mediated expression of Il13", "assay": "IL-25-mediated Il13 mRNA expression in MEFs, real-time RT-PCR", "format": "cell-based, mouse", "conditions": "peptides 200 μM for 24 hours, then IL-25 for 3 hours", "procedure": "as §1, §2"}}}
{"sequence": "DRQIKIWFQNRRMKWKKLDEDEHGLHTKY [CC′ loop decoy peptide]", "values": [{"measurement": "inhibition of the Act1-IL-17RA interaction (co-IP)", "setting": "Act1-IL-17RA interaction", "value": "more efficiently inhibited"}, {"measurement": "inhibition of IL-25-mediated expression of Il13", "setting": "[1]", "value": "~60", "unit": "% inhibition"}]}
